The target of assay [1] is T1, CD79b on the surface of B-cell non-Hodgkin's lymphoma cells (human, UniProt P40259 29-229).
T1 construct: whole, on cells; Endogenous CD79b of the cell lines; on cells it stands in the B cell receptor complex with CD79a; also called CD79b on Ramos cells; CD79b on BJAB cells
T1 sequence (looked up): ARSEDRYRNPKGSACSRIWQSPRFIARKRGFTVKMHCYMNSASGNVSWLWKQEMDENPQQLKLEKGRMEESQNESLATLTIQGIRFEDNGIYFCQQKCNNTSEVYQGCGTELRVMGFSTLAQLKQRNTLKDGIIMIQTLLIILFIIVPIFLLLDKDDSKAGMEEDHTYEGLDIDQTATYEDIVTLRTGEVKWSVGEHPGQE
Nature of the assay: flow cytometry on BJAB cells, goat anti-human IgG PE. As to the method:
(§1) Ramos (ATCC, Cat #CRL-1596) and BJAB (AddexBio, USA, Cat #C0003016) were passaged according to the conventional procedures. Cells were counted after centrifugation and resuspension, adjusted to a density of 4×10⁶ cells/mL, poured into a loading tank, and seeded to a 96-well plate at 50 μL/well using a multichannel pipettor. 50 μL of the antibody sample diluted in gradient was added to the 50 μL of cells in each well, and the mixture was then incubated in an incubator at 5% CO₂ and 37° C. for 30 min. The mixture was centrifuged at 400 g for 5 min, then 200 μL of PBS was added, and the resulting mixture was centrifuged at 400 g for 5 min. This procedure was repeated 3 times. Goat anti-human IgG PE (1:200) was added, and the mixture was incubated for 30 min in the dark at room temperature. The mixture was washed with 200 μL of PBS twice, centrifuged, and then resuspended in 100 μL of PBS, and the values were read using a flow cytometer. The values were fitted to obtain a curve and EC₅₀ values were calculated.
(§2) The binding of the humanized antibodies to Ramos and BJAB cells was detected by flow cytometry. The assay was the same as in Example 4. The binding of the humanized antibodies to CD79b on the surface of Ramos cells is shown in FIG. 3; the binding of the humanized antibodies to CD79b on the surface of BJAB cells is shown in FIG. 4.
In general terms: Flow cytometry measures light scatter and fluorescence of single cells or particles in a stream.

The target in assay [2] is T2, human CD79b (recombinant antigen in the ForteBio assays) (human, UniProt P40259 29-159).
T2 construct: the immunogen was CD79b protein from Sino, Cat #29750-H08H; also called huCD79b
T2 sequence (looked up): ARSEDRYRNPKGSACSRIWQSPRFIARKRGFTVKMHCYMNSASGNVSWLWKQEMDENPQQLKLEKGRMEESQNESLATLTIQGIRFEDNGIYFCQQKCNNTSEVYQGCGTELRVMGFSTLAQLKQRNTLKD
Nature of the assay: BLI (ForteBio), antibody loaded on sensor, antigen in solution. As for the experimental part: Briefly, an AMQ (Pall, 1506091) sensor was equilibrated offline in an assay buffer for 30 min and then equilibrated online for 60 s to establish a baseline. The purified antibodies obtained as described above were each loaded online onto an AHQ sensor (ForteBio) for the ForteBio affinity assay. The sensor with the loaded antibody was then exposed to antigen CD79b before transferring the sensor to the assay buffer to measure the dissociation rate. The KD values were analyzed using ForteBio analysis software.
The equilibrium dissociation constants (KD) for the binding of the humanized antibodies of the present invention to human CD79b were determined by ForteBio.

For assay [3], the target named is T1, CD79b on the surface of B-cell …. The assay can be described thus: flow cytometry on Ramos cells, goat anti-human IgG PE. As for the experimental part:
as §1, §2

For assay [4] the target is unchanged. The assay can be described thus: flow cytometry on WSU-DLCL2 cells, goat anti-human IgG PE. As to the method:
(§3) The binding ability of the CD79b/CD3 bispecific antibodies for CD79b-positive B-cell non-Hodgkin's lymphoma cell lines was detected by flow cytometry.
(§4) BJAB (AddexBio, USA, Cat #C0003016) and WSU-DLCL2 (Nanjing Kebai Biotechnology Co., Ltd., Cat #CBP60273) were cultured and passaged according to the conventional procedures. Cells were counted after centrifugation and resuspension, adjusted to a density of 4×10⁶ cells/mL, poured into a loading tank, and seeded to a 96-well plate at 50 μL/well using a multichannel pipettor. 50 μL of the antibody sample diluted in gradient was added to the 50 μL of cells in each well, and the mixture was then incubated in an incubator at 5% CO₂ and 37° C. for 30 min. The mixture was centrifuged at 400 g for 5 min, then 200 μL of PBS was added, and the resulting mixture was centrifuged at 400 g for 5 min. This procedure was repeated 3 times. Goat anti-human IgG PE (1:200) was added, and the mixture was incubated for 30 min in the dark at room temperature. The mixture was washed with 200 μL of PBS twice, centrifuged, and then resuspended in 100 μL of PBS, and the values were read using a flow cytometer. The values were fitted to obtain a curve and EC₅₀ values were calculated.

Assay [5] shares this target. The assay can be described thus: flow cytometry on BJAB cells, goat anti-human IgG PE. As for the experimental part: as §3, §4
The source holds these as a separate data set.

Assay [6] addresses T3, human CD3E & CD3G-biotin (Sino biological) (human, UniProt P07766 23-126; P09693 23-116, limits assumed).
T3 construct: also called Human CD3E&G
The assay can be described thus: SPR (Biacore T200), biotinylated CD3E&CD3G on streptavidin chip, antibody injected. As to the method: (§5) The binding kinetics of exemplary anti-CD79b/CD3 antibodies of the present invention for human CD79b, human CD3, and cynomolgus monkey CD3 were determined using surface plasmon resonance (Biacore T200). (1) Affinity assay of antibodies for human CD79b-his (Sino biological): 50 mM N-hydroxysuccinimide (NHS) and 200 mM 1-ethyl-3-(3-dimethylaminopropyl) carbodiimide hydrochloride (EDC) were freshly mixed and activated for 420 s at a flow rate of 10 μL/min. Human CD79b-His antigen was then diluted in 10 mM Acetate (pH 5.0), and after dilution to a concentration of 1 μg/mL, the antigen solution was subjected to coupling and the value was approximately 50 RU. Then 1 M ethanolamine was injected at a flow rate of 10 μL/min for 420 s to block the remaining activation sites. The buffer used in the experiment was HBS-EP+ solution at pH 7.4, and under a high performance mode, the antibodies obtained after 2-fold gradient dilution (0-80 nM) were each injected, according to an ascending order based on concentrations, into the channels 1, 2, 3 and 4 of the chip at a flow rate of 30 μL/min, wherein one cycle was used for determination of one concentration, the binding time was 180 s, and the dissociation time was 600 s. (2) Affinity assay of antibodies for human CD3E & CD3G-biotin (Sino biological) and monkey CD3E & CD3G-biotin (Sino biological): 50 mM NHS and 200 mM EDC were freshly mixed and activated for 420 s at a flow rate of 10 μL/min. Streptavidin (Thermo Fisher scientific) protein was then diluted in 10 mM Acetate (pH 4.5) and after dilution to a concentration of 10 μg/mL, the antigen solution was subjected to coupling and the value was approximately 3000 RU. Then 1 M ethanolamine was injected at a flow rate of 10 μL/min for 420 s to block the remaining activation sites. Human CD3E & CD3G-biotin and monkey CD3E & CD3G-biotin proteins were each immobilized on the chip channels coupled with Streptavidin protein. The antibodies (0-16 nM or 0-40 nM or 0-200 nM) obtained after 2-fold gradient dilution were each injected, according to an ascending order based on concentrations, into the channels 1, 2, 3 and 4 of the chip at a flow rate of 30 μL/min, wherein one cycle was used for determination of one concentration, the binding time was 180 s, and the dissociation time was 300 s.

The target in assay [7] is T4, human CD79b-his (Sino biological) (human, UniProt P40259 29-159).
T4 construct: Amine-coupled to the Biacore chip (about 50 RU); not shown: His tag
T4 sequence (looked up): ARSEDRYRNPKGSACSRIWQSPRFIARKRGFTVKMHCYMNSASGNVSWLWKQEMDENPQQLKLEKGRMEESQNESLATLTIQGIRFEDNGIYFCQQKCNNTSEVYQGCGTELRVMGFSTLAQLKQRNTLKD
The assay can be described thus: SPR (Biacore T200), CD79b-His coupled to chip, antibody injected. As to the method:
as §5
For orientation: SPR reads the build-up and loss of mass on a sensor chip optically.

Assay [8] has as its target T5, monkey CD3E & CD3G-biotin (Sino biological) (cynomolgus monkey, UniProt Q95LI5 22-117; Q95LI7 23-113, limits assumed).
T5 construct: also called Cyno CD3E&G; monkey CD3E&G
T5 sequence (looked up) 1: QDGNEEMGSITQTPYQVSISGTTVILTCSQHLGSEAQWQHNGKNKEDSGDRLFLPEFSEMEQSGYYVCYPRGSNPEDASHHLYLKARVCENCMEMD
T5 sequence (looked up) 2: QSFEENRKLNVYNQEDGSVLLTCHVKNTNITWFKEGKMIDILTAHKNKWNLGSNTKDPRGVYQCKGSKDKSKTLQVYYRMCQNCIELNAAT
The assay can be described thus: SPR (Biacore T200), biotinylated monkey CD3E&CD3G on streptavidin chip, antibody injected. As for the experimental part:
as §5

T3 sequence (P07766 23-126 limits assumed, chain 1 of 2): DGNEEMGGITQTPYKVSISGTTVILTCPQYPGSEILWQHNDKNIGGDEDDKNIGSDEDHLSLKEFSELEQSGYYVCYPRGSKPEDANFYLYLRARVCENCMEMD
T3 sequence (P09693 23-116 limits assumed, chain 2 of 2): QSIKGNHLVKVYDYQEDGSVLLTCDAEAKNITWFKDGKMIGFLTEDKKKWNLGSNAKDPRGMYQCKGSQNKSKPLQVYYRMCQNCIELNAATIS

B1: hz34F1.14 (antibody, V domains shown)
VH: QVQLVQSGAEVKKPGASVKVSCKASGYSFTTYWMNWVRQAPGQGLTWMGMIDPSDSETHYNHLFKDRVTMTVDKSTSTAYMELSSLRSEDTAVYYCTRAIGYWGQGTLVTVSS
VL: DVVMTQSPLSLPVTLGQPASISCKSSLSLLDSEGKTYLNWFQQRPGQSPRPLISLVSKLDSGVPDRFSGSGSGTDFTLKISRVEAEDVGVYYCWQGTHFPLTFGGGTKVEIK
One may read the EC50 (read off the curve) as the concentration needed to bring the measured effect to its halfway point. As usually defined, the Kd is the equilibrium constant for the complex coming apart. Regarding B1, the figures for the “EC50 (read off the curve)” value in assay [1] and in assay [3] were roughly 10 nM and roughly 20 nM, respectively. Moreover, the Kd in assay [2] was 2.53 nM.

B2: hz11G10.9.p1 (antibody, V domains shown)
VH: QVQLVQSGAEVKKPGASVKVSCKASGYTFTDYWVNWVRQAPGQGLEWMGMIDPSDSETHYNQMFNDRVTMTVDTSTSTVYMELSSLRSEDTAVYYCTRSNYYWGQGTLVTVSS
VL: DIVMTQTPLSLSVTPGQPASISCKSSQSLLDSEGKTYLNWLLQKPGQSPQSLIYLVSKLDSGVPDRFSGSGSGTDFTLKISRVEAEDVGVYYCWQGTHFPLTFGGGTKVEIK
notes: Humanized monospecific anti-CD79b antibody; also called 11G10.9.01
For B2, the “EC50 (read off the curve)” value was roughly 4 nM in assay [1] and roughly 5 nM in assay [3]. The Kd in assay [2] came out at 1.35 nM.

B3: hz38D9B3.11 (antibody, V domains shown)
VH: QVQLVQSGSELKKPGASVKVSCKASGYTFTDYSMHWVRQAPGQGLEWMGWINTETGEPSYADDFKGRFVFSLDTSVSTAYLQISSLKAEDTAVYYCYYGPYWGQGTLVTVSS
VL: EIVLTQSPATLSLSPGERATLSCKASQSVDHDVDSYMDWYQQKPGQAPRLLIYSASNLESGIPARFSGSGSGTDFTLTISSLEPEDFAVYYCQQINEYPYTFGGGTKVEIK
notes: Humanized monospecific anti-CD79b antibody
As for B3, the “EC50 (read off the curve)” value in assay [1] and in assay [3] was roughly 2 nM in each case. Moreover, the Kd in assay [2] is 0.274 nM.

B4: 11G10.9.p1/sp34.24 (bispecific antibody, human IgG1, kappa, lambda, L234A L235A)
heavy 1: not shown
light 1: DIVMTQTPLSLSVTPGQPASISCKSSQSLLDSEGKTYLNWLLQKPGQSPQSLIYLVSKLDSGVPDRFSGSGSGTDFTLKISRVEAEDVGVYYCWQGTHFPLTFGGGTKVEIKRTVAAPSVFIFPPSDEQLKSGTASVVCLLNNFYPREAKVQWKVDNALQSGNSQESVTEQDSKDSTYSLSSTLTLSKADYEKHKVYACEVTHQGLSSPVTKSFNRGEC
heavy 2: not shown
light 2: QAVVTQEPSLTVSPGGTVTLTCRSSTGAVTTSNYANWVQQKPGQAPRGLIGGTNKRAPGVPARFSGSLLGDKAALTLLGAQPEDEAEYYCALWYSNLWVFGQGTKLTVLGQPKAAPSVTLFPPSSEELQANKATLVCLISDFYPGAVTVAWKADSSPVKAGVETTTPSKQSNNKYAASSYLSLTPEQWKSHRSYSCQVTHEGSTVEKTVAPTECS
notes: also called 11G10.9.p1 x HzSP34.24
What is called koff is a measure of how fast the partners let go of each other. One may read the kon as the rate constant with which the complex forms. On to B4, for which the “EC50 (read off the curve)” value in assay [4] is roughly 30 nM; in assay [5] it was roughly 20 nM. For the same molecule, the Kd stood at 6.25 nM in assay [6], 2.16 nM in assay [7] and 10.7 nM in assay [8]. Also, the results for the koff in assay [6], in assay [7] and in assay [8] were 0.00531 s⁻¹, 0.00176 s⁻¹ and 0.0061 s⁻¹, respectively. Further, the values for the kon in assay [6], in assay [7] and in assay [8] were 851000 M⁻¹ s⁻¹, 815000 M⁻¹ s⁻¹ and 570000 M⁻¹ s⁻¹, respectively.

B5: CD79b.A7v14b/38E4v1 (bispecific antibody, human IgG1, kappa, L234A L235A)
heavy 1: not shown
light 1: DIVMTQTPLSLPVTPGQPASISCKSSQSLLDSDGKTYLNWLLQKPGQSPQSLIYLVSKLDSGVPDRFSGSGSGTDFTLKISRVEAEDVGVYYCWQGTHFPQTFGQGTKVEIKRTVAAPSVFIFPPSDEQLKSGTASVVCLLNNFYPREAKVQWKVDNALQSGNSQESVTEQDSKDSTYSLSSTLTLSKADYEKHKVYACEVTHQGLSSPVTKSFNRGEC
heavy 2: not shown
light 2: not shown
notes: also called CD79b.A7v14b x 38E4v1
Regarding B5, the “EC50 (read off the curve)” value in assay [4] is roughly 20 nM; in assay [5], roughly 10 nM. The Kd is 1 nM in assay [6], 8.66 nM in assay [7] and 1.52 nM in assay [8]. The results for the koff in assay [6], in assay [7] and in assay [8] were 0.00296 s⁻¹, 0.00701 s⁻¹ and 0.00285 s⁻¹, respectively. Further, the kon worked out at 2.96e+06 M⁻¹ s⁻¹ in assay [6], 809000 M⁻¹ s⁻¹ in assay [7] and 1.88e+06 M⁻¹ s⁻¹ in assay [8].

For the origin of these results see patent publication US20240343799A1 (Innovent, published 2024).
